This note sets out measurements from publication PMC3248863, “The acid-tolerant L-arabinose isomerase from the mesophilic Shewanella sp. ANA-3 is highly active at low temperatures” (Microbial Cell Factories, 2011).

The series deals with the molecule itself. Kind of series: SEC; size exclusion chromatography of the purified recombinant enzyme against protein markers of 669, 440, 232, 140 and 66 kDa; single peak of 230 kDa, compared with the 55 kDa band in reducing SDS-PAGE.

B1: Shewanella sp. ANA-3 L-arabinose isomerase (enzyme, UniProt A0KWX7 1-500, looked up)
chain: MKAFKQKQVWFITGSQDLYGPKVLEQVAKNSEQIVHGFNESSAISIEVVYKPTVKSPREIHAVCQAANSDENCVGVILWMHTFSPAKMWIAGLNELSKPFMHLHTQFNAELPWSEINMNYMNTHQSAHGCREFGFIGTRMRKERKVVVGHWQSSDVQAQIDDWCRAAAGWHESQNLRIARFGDNMRQVAVTEGDKVAAQIQFGYEVHAYSLGELNEAIADIAEGDVTAQLDRYASEYQVGNELFGDEYQLDRLRKEAKIELGLTQFLTQGGFGAFTNCFENLTGMTGLPGLATQRLMANGFGYGGEGDWKTAAMVRIMKVMGQGRAGGTSFMEDYTYNFGATDQVLGAHMLEVCPSIAAAKPRLEVHRHTIGVRCDVPRLLFTGKAGPAINVSTIDLGNRFRIILNELDTVTPPQDLPNLPVASALWEPRPNLAVAAAAWIHAGGAHHSAYSQAITTDQIVDFAEMAGAELVIIDADTKIREFKNELRQNSVYYGLARGL
notes: L-arabinose isomerase (EC 5.3.1.4) of Shewanella sp; ANA-3, product of the araA gene amplified from chromosomal DNA; 500 amino-acid residues, calculated mass 55.3 kDa; Six histidines at the N-terminal end from pET-15b; also called L-AI; Shewanella sp; ANA-3 L-AI; source: E. coli BL21 (DE3) (pMR38, pET-15b), purified (ammonium sulphate precipitation, IMAC, size exclusion chromatography)
As usually defined, the stoichiometry N is a count of units in the complex or per binding partner. With B1, the “stoichiometry N” value is 4.
